Patent US20190201542A1 (AbbVie / Abbott, published 2019)
Changes are numbered by the printed parent chain.

T1: human DLL3 (human, UniProt Q9NYJ7 27-492, limits assumed)
T1 construct: also called hDLL3; DLL3 protein
T1 sequence: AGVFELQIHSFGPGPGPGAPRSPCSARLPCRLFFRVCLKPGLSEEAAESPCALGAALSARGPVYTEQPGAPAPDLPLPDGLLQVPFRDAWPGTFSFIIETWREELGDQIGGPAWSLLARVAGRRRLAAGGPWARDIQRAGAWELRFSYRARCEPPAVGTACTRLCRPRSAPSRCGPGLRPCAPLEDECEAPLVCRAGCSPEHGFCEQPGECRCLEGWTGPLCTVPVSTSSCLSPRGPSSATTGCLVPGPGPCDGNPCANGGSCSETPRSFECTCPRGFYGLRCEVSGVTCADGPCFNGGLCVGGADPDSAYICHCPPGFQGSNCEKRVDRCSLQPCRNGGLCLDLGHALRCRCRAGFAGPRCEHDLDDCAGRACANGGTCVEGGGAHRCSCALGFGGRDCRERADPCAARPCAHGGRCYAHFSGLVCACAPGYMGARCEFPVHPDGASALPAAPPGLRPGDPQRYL

B1: SC16.65 (antibody, V domains shown)
VH: QVTLKESGPGILQPSQTLSLTCSFSGFSLSTSGMGVGWIRQPSGKGLEWLALIWWDDVKRYNPALKSRLTISKDASSSQVFLKIASVDTADTATYYCARIASYDYDVVYAMDYWGQGTSVSVSS
VL: QIVLTQSPALMSASPGEKVTMTCSVTSSVSYMYWYQQKPRSSPKPWIYLTSNLASGVPARFSGSGSGTSYSLTISSVEAEDAATYYCQQWRNNPFTFGSGTKVEIK
notes: murine mAb
B2: SC16.57 (antibody, V domains shown)
VH: EVKLVESGGDLVKPGGSLKLSCAASGFAFSSYDMSWVRQTPEKRLEWVATISSGGSYTYYPDSVKGRFTISRDNVRDTLYLQMSSLRSEDTALYYCARQAIGTYFDYWGQGTTLTVSS
VL: DIVMTQSHKFMSISVGDRVSITCKASQDVSIFVAWYQQKPGQSPKLLIYSASYRYTGVPDRFTGSGSGTDFIFTISSVQAEDLAVYYCQQHYGTPFTFGSGTKLKIR
notes: murine mAb
B3: SC16.72 (antibody, V domains shown)
VH: EVQLQQSGPELVKPGASVKMSCKASGYTFTSYVMHWVKQKPGQGLEWIGYINPYNDGTKYNEKFKGKATLTSDKSSSTAYMELSSLTSEDSAVYYCARLRSRAMDYWGQGTSVTVSS
VL: ENVLTQSPAIMSASLGEKVTMSCRASSSVNYMSWYQQKSDASPKLWIYYTSNLAPGVPARFSGSGSGNSYSLTISSMEGEDAATYYCQQFTSSPYTFGGGTKLEIK
notes: murine mAb
B4: SC16.55 (antibody, V domains shown)
VH: EVQLVESGGGLVQPKGSLKLSCAVSAFTFTTYAMNWVRQAPGKGLEWVARIRNKSNNYATYYADSVKDRFTISRDDSQSMLYLQMNNLKIEDTAMYYCVFYYDYVYWGQGTLVTVSA
VL: DIKMTQSPSSMYASLGERVTITCKASQDINSYLNWFQQKPGKSPKTLIYRANRLVDGVPSRFSGSGSGQDYSLTISSLEYEDMGIYYCLQYDEFPYTFGGGTKLEIK
notes: murine mAb
B5: SC16.78 (antibody, V domains shown)
VH: EVKLVESGGGLVKPGGSLKLSCAASGFTFGRYVMSWVRQTPEKKLEWVASITSGGTTYYPDSVKGRFTISRDNARNILYLQMSSLRSEDTAMYYCARVYYHYDDIFAYWGQGTLVTVSA
VL: B4 VL with N34S, K42R, E79D, Y96F, G100S
notes: murine mAb
B6: SC16.67 (antibody, V domains shown)
VH: B4 VH with S7T
VL: QAVVTQESALTTSPGETVTLTCRSSTGAVTTSNYANWIQEKPDHLFTGLIGGTNNRAPGVPARFSGSLIGDKAALTITGAQTEDEAIYFCGLWYSNHLVFGGGTKLTVL
notes: murine mAb
B7: SC16.62 (antibody, V domains shown)
VH: EVMLVESGGDLVKPGGSLKLSCAASGFTFSSYAMSWVRQTPEKRLEWVAYISGGGDHIYYPDSVRGRFTISRDNAKDTLYLQMSSLRSEDTALYDCARVRDWYFDVWGAGTTVTVSS
VL: B4 VL with Y32F, N34S, Q38R, S63T, D70E, Y71F, M83L
notes: murine mAb
B8: SC16.81 (antibody, V domains shown)
VH: QVQLKESGPVLVAPSQSLSITCTVSGFSLTSYGVHWVRQPPGKGLEWLGVIWAGGSTNYNSALMSRLSISKDNSKSQVFLKMNSLQTDDTAMYYCAKQGNFYAMDYWGQGTSVTVSS
VL: QIVLTQSPAIMSASLGERVTLTCTASSSVSSSYLHWYQQKPGSSPKLWIYSTSNLASGVPTRFSGSGSGTSYSLRISSMEAEDAATYYCHQYNRSPLTFGAGTKLELK
notes: murine mAb
B9: SC16.58 (antibody, V domains shown)
VH: DVQLVESGGGLVQPGGSRKLSCAASGFTFSSFGMHWVRQAPEKGLEWVAYISSGSSNIYYADTVKGRFTISRDNPKNTLFLQMTSLRSEDTAMYYCARGYYGNYDAMDYWGQGTSVTVSS
VL: DIQMTQSPASLSSSVGETVTITCRASENIYSYLAWYQQKQGKSPQLLVYNAKTLAEGVPSRFSGSGSGTQFSLKINSLQPEDFGTYYCQHHYDSPLTFGAGTKLELR
notes: murine mAb
B10: SC16.80 (antibody, V domains shown)
VH: EVQLQQSGPELVKPGGSKKISCKASGYSFTGYSMNWVKQSHGKNLEWIGLINPYSGGTIYNQKFKGKATLTVDKSSSTAYMELLSLTSEDSAVYYCARRSDYPLVYWGQGTLVTVSA
VL: ETTVTQSPASLSMAIGEKVTIRCITSTDIDDDMIWYQQKPGEPPKLLISEGNTLRPGVPSRFSSSGYGTDFVFTIENMLSEDVADYYCLKRDDLPYTFGGGTQVEIK
notes: murine mAb
B11: SC16.61 (antibody, V domains shown)
VH: EVLLQRSGPDLVKPGASVTIPCKASGYTFTDYNMDWVKQSHGKSLEWIGNINTYNGGTIYNQKFKGKATLTVDKPSSTAYMELRSLTSEDTAVYYCARRLRYGGHYFDYWGQGTALTVSS
VL: DIVMTQSTSSLAMSVGQKVTMSCKSSQSLLNSSNQKNYLAWYQQEPGQSPKLLVSFASTRESGVPDRFTGSGSGTDFTLTISGVQAEDLAVYYCQQHYSIPLTFGAGTKLELK
notes: murine mAb
B12: SC16.63 (antibody, V domains shown)
VH: QVQLQQSGTELLRPGASVKISCKATGYTFSSYWMEWVKQRPGHGLEWIGEILPGSGTTQYNEKFKGKATFTADTSSNTAYMHLSSLTSEDSAVYYCARGTNSLWGQGTLVTVSA
VL: QIVLTQSPAIMSASPGEKVTMTCSASSSVSYMYWYQQKSGTSPKRWIYDTSKLASGVPARFSGSGSGTSYSLTISSMEAEDAATYYCQQWSSNPYTFGGGTKLEIK
notes: murine mAb
B13: SC16.7 (antibody, V domains shown)
VH: EVQLQQSGPELVKPGASVKISCKASGYSFTGYKMHWVKQSHVKSLEWIGRINPYNGATSYNQNFKDKATLTVDKSSSTAYMDLHSLTSEDSAVYFCARGDYRYDWFAYWGQGTLVTVSA
VL: NIMMTQSPSSLAVSAGEKVTMSCKSSQSVLYSSNQKNYLAWYQQKPGQSPKLLIYWASTRESGVPDRFTGSGSGTDFTLTISTVQVEDLAVYYCHQYLSSWTFGGGTKLEIK
notes: murine mAb
B14: SC16.79 (antibody, V domains shown)
VH: EVQLQQSGPELVKPGASVKISCKTSGYTFTEYTMHWVKQSHGKSLEWIGGINPNNGGTSYNQKFKGKATLTVDKSSSTAYMELRSLTSEDSAVYYCARGPAWFAYWGQGTLVTVSA
VL: DIVMSQSPSSLAVSAGEKVTMSCKSSQSLLNSRTRKNYLAWYQQKPGQSPKLLIYWASTRESGVPDRFTGSGSGTDFTLTISSVQAEDLAVYYCKQSYNLYTFGGGTKLKIK
notes: murine mAb
B15: SC16.73 (antibody, V domains shown)
VH: QVQLQQSGAELMKPGASVKISCKANGYTFSSYWIEWLRQRPGHGLEWIGEILPGSDNSNYNEKFKGKATFTADTSSNTAYMQLSSLTSEESAVYYCTRGLRRDGSYYYVMEHWGQGTSVTVSS
VL: DIQMTQSPSSLSASLGERVSLTCRASQDIGYSLNWLQQEPDGTIKRLIYATSSLDSGVPKRFSGSRSGSDYSLTISSLESEDFVDYYCLQYASSPWTFGGGTKLEIK
notes: murine mAb

The binders below were run against T1, human DLL3 (assay: screen on immobilized hDLL3 or h293-hDLL3 cells).
Method in brief: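 Hybridoma supernatants from single cells of mice immunized with human DLL3 were screened after 10 days in culture. Binding by flow cytometry was scored positive when above the control. In the solid-phase ELISA, plates coated with DLL3-His at 0.5 μg/ml were probed with HRP anti-mouse IgG and TMB and read at OD 450.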

Binding result, binds:
B1
B2
B3
B4
B5
B6
B7
B8
B9
B10
B11
B12
B13
B14
B15
